A word on the IC50: it is the concentration that inhibits the measured activity by half. Read a high IC50 as lower potency.

The assay deals with monoclonal antibody M75 (MAb M75), secreted from the hybridoma VU-M75, ATCC HB 11128. In words: competition ELISA: peptide in solution against immobilized GST-MN for M75. In general terms: In an ELISA, binding on a coated surface is turned into a signal by an enzyme label.

For the molecule GGSSGEDDPLGEEDLPSEEDSP [oligopeptide … (aa 51-72) [SEQ ID NO: 104]], the concentration for half-maximal inhibition (IC50) is 1 ng/mL.
